Assay [1] deals with T1, LRP6 E1E2 variants with LRP5 BMD substitutions (Homo sapiens, UniProt O75581, R141M).
T1 construct: construct E1E2-amino acids A20-E631 of LPR6; made in house; host or cells: insect cells (Tni, baculovirus)
T1 sequence (O75581 20-631 R141M): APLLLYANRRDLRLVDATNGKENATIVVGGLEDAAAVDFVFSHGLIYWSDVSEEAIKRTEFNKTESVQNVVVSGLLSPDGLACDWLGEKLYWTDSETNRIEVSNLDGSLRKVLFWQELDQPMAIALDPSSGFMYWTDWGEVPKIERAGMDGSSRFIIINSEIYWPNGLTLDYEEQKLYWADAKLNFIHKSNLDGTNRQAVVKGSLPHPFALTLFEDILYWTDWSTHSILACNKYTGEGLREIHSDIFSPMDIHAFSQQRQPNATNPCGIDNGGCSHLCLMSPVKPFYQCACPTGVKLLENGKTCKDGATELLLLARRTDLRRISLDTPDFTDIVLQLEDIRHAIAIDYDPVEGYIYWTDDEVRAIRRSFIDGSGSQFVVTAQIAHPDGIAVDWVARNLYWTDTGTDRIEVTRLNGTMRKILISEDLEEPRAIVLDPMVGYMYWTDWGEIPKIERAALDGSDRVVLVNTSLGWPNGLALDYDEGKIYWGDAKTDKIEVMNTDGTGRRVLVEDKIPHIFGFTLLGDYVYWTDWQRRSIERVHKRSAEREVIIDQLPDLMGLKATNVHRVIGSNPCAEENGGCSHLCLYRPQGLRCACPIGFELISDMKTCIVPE
Briefly: Steady-state affinity for LRP6 E1E2 variants carrying LRP5 BMD substitutions. In kind it is binding. Particulars: LRP6 Arg141Met vs wild type LRP6 E1E2. The method, then:
FIG. 13. Introduction of LRP5 BMD substitutions into LRP6 E1E2 lowers affinity for Wnt inhibitors. The five substitutions characterized are indicated on the y-axis. Steady-state affinity measurements were made for Wnt9b, Dkk1, and sclerostin binding to each of the LRP6 variants.
(§1) Binding kinetics were measured by biolayer interferometry using an Octet Red instrument (ForteBio) as previously described (11). Streptavidin (SA) biosensors were loaded with biotinylated hLRP6 in 50 mMTris, pH 8, 300 mM NaCl, 5% (v/v) glycerol, and 0.05% (w/v) Triton X-100. The loaded biosensors were washed in the same buffer before carrying out association and dissociation measurements for the indicated times. The Kd of each interaction was determined using steady state-analysis through the Octet Red software v6.3. Each reported value represents an average of three or more experiments at different concentrations, with a fitted experimental curve for which the square of the correlation coefficient (R^2) is above 0.96.
Cells transfected with LRP5 variants carrying BMD mutations show reduced binding to sclerostin and are less sensitive to sclerostin inhibition of Wnt10b or Wnt6 signaling (70). To further test the effects of the BMD substitutions, we introduced several of them into LRP6 E1E2, with the results shown in FIG. 13. LRP6 E1E2 Gly158Val could not be expressed in insect cells. […] Importantly, not only is the binding to sclerostin affected (70), but the binding of Dkk1 to its E1 interaction site is also impaired.

Assay [2] deals with T2, Wnt3a binding to LRP6 E1E4 (Homo sapiens, UniProt O75581).
T2 construct: construct E1E4-amino acids A20-Q1253 of LPR6; made in house; host or cells: Tni insect cells (baculovirus, secreted)
T2 sequence (O75581 20-1253): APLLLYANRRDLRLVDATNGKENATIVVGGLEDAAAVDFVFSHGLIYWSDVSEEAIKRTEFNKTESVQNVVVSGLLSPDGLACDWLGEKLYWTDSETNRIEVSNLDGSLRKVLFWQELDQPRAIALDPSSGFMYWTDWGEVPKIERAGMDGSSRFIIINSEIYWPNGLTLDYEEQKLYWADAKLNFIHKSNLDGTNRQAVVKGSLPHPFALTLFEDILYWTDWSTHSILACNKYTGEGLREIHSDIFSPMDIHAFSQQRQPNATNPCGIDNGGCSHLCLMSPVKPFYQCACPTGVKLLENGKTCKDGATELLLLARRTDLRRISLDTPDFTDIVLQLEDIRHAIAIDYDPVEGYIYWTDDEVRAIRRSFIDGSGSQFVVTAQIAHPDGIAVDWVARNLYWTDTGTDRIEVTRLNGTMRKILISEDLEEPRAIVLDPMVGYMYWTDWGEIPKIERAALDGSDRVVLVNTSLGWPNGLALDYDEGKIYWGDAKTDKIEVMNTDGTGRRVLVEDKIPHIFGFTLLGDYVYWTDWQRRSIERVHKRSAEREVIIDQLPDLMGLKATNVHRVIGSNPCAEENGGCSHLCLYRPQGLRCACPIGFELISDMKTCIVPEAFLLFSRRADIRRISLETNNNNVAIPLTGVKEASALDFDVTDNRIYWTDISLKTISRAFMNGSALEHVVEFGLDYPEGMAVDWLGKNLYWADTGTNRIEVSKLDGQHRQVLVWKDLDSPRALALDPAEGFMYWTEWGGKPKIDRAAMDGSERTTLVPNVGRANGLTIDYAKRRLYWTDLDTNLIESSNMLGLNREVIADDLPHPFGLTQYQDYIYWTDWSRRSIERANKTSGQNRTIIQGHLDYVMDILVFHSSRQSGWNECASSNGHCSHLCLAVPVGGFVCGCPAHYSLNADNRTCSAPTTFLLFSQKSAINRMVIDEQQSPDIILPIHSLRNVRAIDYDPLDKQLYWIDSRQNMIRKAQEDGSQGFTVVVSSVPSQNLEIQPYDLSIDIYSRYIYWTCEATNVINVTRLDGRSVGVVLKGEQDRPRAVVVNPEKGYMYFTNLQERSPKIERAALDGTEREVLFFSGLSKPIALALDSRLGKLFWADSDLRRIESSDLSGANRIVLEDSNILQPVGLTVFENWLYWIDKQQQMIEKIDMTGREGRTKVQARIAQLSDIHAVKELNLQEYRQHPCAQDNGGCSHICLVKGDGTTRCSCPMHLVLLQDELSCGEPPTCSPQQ
Briefly: Wnt3a binding to LRP6 E1E4 in presence of inhibitor. The note with it: inhibitor 125 nM, Wnt 125 nM. The method, then: FIG. 11. Wnt binding to LRP6 E1E4 in the presence or absence of Dkk1 or sclerostin.
as §1
Wnt9b also binds to the E1E2 region but not to the E3E4 region (11). Accordingly, sclerostin inhibits Wnt9b binding to LRP6 E1E4 (FIG. 11). […] Accordingly, Dkk1 inhibits the binding of both Wnt3a and Wnt9b to LRP6 E1E4 (FIG. 11).

On to “sclerostin: Sclerostin protein, Wnt pathway inhibitor, expressed in insect cells (LPNAIGR)”, for which the “loss in affinity for LRP6 E1E2 Arg141Met” value in assay [1] is listed as 31 fold. In assay [2], the “inhibition of Wnt3a binding to LRP6 E1E4” value was “unable to inhibit”.
As to “Dkk1: Dickkopf 1 protein, Wnt pathway inhibitor, expressed in insect cells (NSNAIKN)”, the “loss in affinity for LRP6 E1E2 Arg141Met” value in assay [1] worked out at 29 fold. In assay [2], the “inhibition of Wnt3a binding to LRP6 E1E4” value is listed as “inhibits”.

(Values after patent publication US20140235820A1, “METHODS AND COMPOSITIONS FOR MODULATING THE Wnt PATHWAY” (Genentech, Inc., priority 2010, published 2014).)
